These results are taken from patent publication US6395531.

The subject of this data set is MlyI restriction endonuclease (Micrococcus lylae). As to the kind of experiment: cleavage_in_vitro. The following applies: recombinant MlyI yield approximately 50,000 units per gram of cells; assay substrate not stated.

Take “plasmid DNA with MlyI sites (sequence not printed)”: the activity (units/g cells) worked out at 50000.
